Data from US20030199671A1, “Binding molecules for Fc-region polypeptides” (priority 2001, published 2003).

Columns and labels:
[1] = target: human IgG (unfractionated, polyclonal); experiment: mini-column; ligand density not determined
[2] = target: human IgG (unfractionated, polyclonal); experiment: filterplate; ligand density not determined
[3] = target: human IgG2 (human) [IgG part: P01859]; experiment: mini-column chromatography, immobilised ligand
[4] = target: human IgG4 (human) [IgG part: P01861]; experiment: mini-column chromatography, immobilised ligand
human IgG4 (human) [IgG part: P01861], sequence (P01861 other isoform, or with tags, fused parts or gaps): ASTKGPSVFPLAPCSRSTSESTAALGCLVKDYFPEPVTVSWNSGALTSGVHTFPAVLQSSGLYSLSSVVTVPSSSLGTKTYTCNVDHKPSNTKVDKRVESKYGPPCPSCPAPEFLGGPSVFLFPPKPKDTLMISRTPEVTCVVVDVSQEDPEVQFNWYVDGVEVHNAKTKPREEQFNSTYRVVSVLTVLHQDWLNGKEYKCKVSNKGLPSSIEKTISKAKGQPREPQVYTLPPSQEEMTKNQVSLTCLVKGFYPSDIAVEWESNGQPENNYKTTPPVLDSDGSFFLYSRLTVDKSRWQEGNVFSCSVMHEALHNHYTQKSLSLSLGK

[5] = target: human IgG1 (human) [IgG part: P01857]; experiment: mini-column chromatography, immobilised ligand
human IgG1 (human) [IgG part: P01857], sequence (P01857 other isoform, or with tags, fused parts or gaps): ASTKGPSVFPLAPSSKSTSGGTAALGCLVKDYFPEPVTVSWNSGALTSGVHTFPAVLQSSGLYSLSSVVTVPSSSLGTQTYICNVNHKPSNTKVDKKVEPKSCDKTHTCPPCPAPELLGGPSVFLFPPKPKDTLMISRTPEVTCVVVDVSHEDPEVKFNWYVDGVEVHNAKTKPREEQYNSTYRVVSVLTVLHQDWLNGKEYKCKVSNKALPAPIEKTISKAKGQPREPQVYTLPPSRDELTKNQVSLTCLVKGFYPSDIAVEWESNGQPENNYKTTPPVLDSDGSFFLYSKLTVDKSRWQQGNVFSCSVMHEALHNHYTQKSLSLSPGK

[6] = target: human IgG2 (human) [IgG part: P01859]; experiment: batch binding, immobilised ligand
[7] = target: human IgG3 (human) (UniProt P01860); experiment: batch binding, immobilised ligand
human IgG3 (human), sequence (P01860 other isoform, or with tags, fused parts or gaps): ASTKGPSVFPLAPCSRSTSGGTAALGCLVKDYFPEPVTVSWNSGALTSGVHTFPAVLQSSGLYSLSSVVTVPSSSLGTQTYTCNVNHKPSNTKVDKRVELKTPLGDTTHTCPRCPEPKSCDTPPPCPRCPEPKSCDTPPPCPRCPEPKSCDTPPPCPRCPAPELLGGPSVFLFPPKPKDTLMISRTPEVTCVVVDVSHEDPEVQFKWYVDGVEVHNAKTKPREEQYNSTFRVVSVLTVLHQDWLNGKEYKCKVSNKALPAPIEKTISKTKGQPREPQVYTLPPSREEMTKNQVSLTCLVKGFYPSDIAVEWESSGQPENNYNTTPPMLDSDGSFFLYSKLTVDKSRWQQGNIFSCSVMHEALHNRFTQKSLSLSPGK

[8] = target: human IgG4 (human) [IgG part: P01861]; experiment: batch binding, immobilised ligand
[9] = target: human IgG1 (human) [IgG part: P01857]; experiment: batch binding, immobilised ligand

human IgG2 (human) [IgG part: P01859], sequence (P01859 other isoform, or with tags, fused parts or gaps): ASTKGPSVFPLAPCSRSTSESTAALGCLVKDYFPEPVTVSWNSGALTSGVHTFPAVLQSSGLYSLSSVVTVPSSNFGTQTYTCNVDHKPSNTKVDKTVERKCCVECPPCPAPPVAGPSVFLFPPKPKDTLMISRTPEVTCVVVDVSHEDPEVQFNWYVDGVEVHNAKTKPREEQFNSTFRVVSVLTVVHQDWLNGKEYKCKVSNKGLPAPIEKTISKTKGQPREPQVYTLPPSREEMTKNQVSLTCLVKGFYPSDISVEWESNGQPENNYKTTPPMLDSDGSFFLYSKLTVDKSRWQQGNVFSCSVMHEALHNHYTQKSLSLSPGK

10% Breakthrough Capacity (mg IgG/mL resin) [1]: 12.9
Total Dynamic Capacity (mg IgG/mL resin) [1]: 16.3
Static Capacity (mg IgG/mL resin) [2]: 11.1
binding efficiency [3]: > 90%
binding efficiency [4]: > 90%
binding efficiency [5]: > 90%
Bound (% of Total Load) [6]: 85%
bdg % (of Total Load) [6]: 93%
Bound (% of Total Load) [7]: 0%
bdg % (of Total Load) [7]: 5%
Bound (% of Total Load) [8]: 89%
bdg % (of Total Load) [8]: 92%
Bound (% of Total Load) [9]: 96%
bdg % (of Total Load) [9]: 93%
Substance: Protein A (from UniProt P38507 37-327)
